Results published in publication PMC7007005.

Experiments:
[1] = biological target: FMN-containing OdAu1aLOV (isolated LOV domain of Ochromonas danica Aureochrome1a) (Ochromonas danica); experiment: SEC; analytical gel filtration of OdAu1aLOV in the lit state (column illuminated with 450 nm LEDs); HEPES 20 mM pH 7.4, NaCl 100 mM, MgCl2 10 mM, TCEP 0.3 mM; 100 μM protein
[2] = biological target: FMN-containing OdAu1aLOV (isolated LOV domain of Ochromonas danica Aureochrome1a) (Ochromonas danica); experiment: SEC; concentration-dependent analytical gel filtration of lit-state OdAu1aLOV, 200 to 10 μM (Figure S6); column illuminated with 450 nm LEDs
[3] = biological target: T1, FMN-containing OdAu1a_(bZIPLOV) (bZIP and LOV domains of Ochromonas danica Aureochrome1a) (Ochromonas danica); experiment: SEC; analytical gel filtration of OdAu1a_(bZIPLOV) in the dark state (Figures S7-S9)
[4] = biological target: T1, FMN-containing OdAu1a_(bZIPLOV) (bZIP …); experiment: SEC; analytical gel filtration of OdAu1a_(bZIPLOV) in the lit state (450 nm LEDs; Figures S7-S9)
[5] = biological target: T2, 5dFMN-containing OdAu1a_(bZIPLOV) (bZIP and LOV domains of Ochromonas danica Aureochrome1a refolded with 5-deazaflavin mononucleotide) (Ochromonas danica); experiment: SEC; analytical gel filtration of OdAu1a_(bZIPLOV) in the dark state (Figures S7-S9)
[6] = biological target: T2, 5dFMN-containing OdAu1a_(bZIPLOV) (bZIP …); experiment: SEC; analytical gel filtration of OdAu1a_(bZIPLOV) in the lit state (450 nm LEDs; Figures S7-S9)
[7] = biological target: T3, OdAu1abZIPLOV (Aureochrome1a bZIP-LOV), 5dFMN cofactor (Ochromonas danica, UniProt C5NSW6); experiment: EMSA; dark state; single shifted band, no supershift; DNA binding buffer: 20 mM HEPES pH 7.4, 100 mM NaCl, 10 mM MgCl2, 1 mM TCEP; EMSA: 20 nM DNA, 10% glycerol, BSA, poly-dI-dC, at 4 C; SEC samples incubated 30 mi
[8] = biological target: T4, OdAu1abZIPLOV (Aureochrome1a bZIP-LOV), FMN cofactor (Ochromonas danica, UniProt C5NSW6); experiment: EMSA; lit state (450 nm); supershifted band, putative 2:1 complex; DNA binding buffer: 20 mM HEPES pH 7.4, 100 mM NaCl, 10 mM MgCl2, 1 mM TCEP; EMSA: 20 nM DNA, 10% glycerol, BSA, poly-dI-dC, at 4 C; SEC samples incubated 30 mi
[9] = biological target: T3, OdAu1abZIPLOV (Aureochrome1a bZIP-LOV), …; experiment: size-exclusion chromatography; dark state, 50 uM protein; DNA binding buffer: 20 mM HEPES pH 7.4, 100 mM NaCl, 10 mM MgCl2, 1 mM TCEP; EMSA: 20 nM DNA, 10% glycerol, BSA, poly-dI-dC, at 4 C; SEC samples incubated 30 mi
[10] = biological target: T4, OdAu1abZIPLOV (Aureochrome1a bZIP-LOV), …; experiment: as above

Q: What does the source list for “FMN-containing OdAu1aLOV (isolated LOV domain of Ochromonas danica Aureochrome1a) (domain or fragment)”?
A: stoichiometry N [1]: 2; stoichiometry N [2]: 2

B1: FMN-containing OdAu1a_(bZIPLOV) (bZIP and LOV domains of Ochromonas danica Aureochrome1a) (domain or fragment)
chain: EEQKIERRERNREHAKRSRVRKKFLLESLQHSVRALEEENEKLRNAIRENLQGEAEQLLTRCSCGGPSVIASDPNTATRTLDDPDYSLVKALQTAQQNFVISDPSIPDNPIVYASQGFLTLTGYALSEVLGRNCRFLQGPETDPKAVEKVRKGLERGEDTTVVLLNYRKDGSTFWNQLFIAALRDGEGNVVNYLGVQCKVSEDYAKAFLKNEENEK
modifications: not checked
Q: How did the stoichiometry N [3] turn out when B1 was run?
A: 2

Q: And the stoichiometry N [4]?
A: 2

B2: 5dFMN-containing OdAu1a_(bZIPLOV) (bZIP and LOV domains of Ochromonas danica Aureochrome1a refolded with 5-deazaflavin mononucleotide) (domain or fragment)
chain: B1 chain
modifications: not checked
Q: With B2 as the molecule, how does the stoichiometry N [5] read?
A: 2

Q: And the stoichiometry N [6]?
A: 2

B3: OdAu1a recognition DNA, TAMRA (dsDNA)
DNA 1: TGTAGCGTCTGACGTGGTTCCCAC
DNA 2: GTGGGAACCACGTCAGACGCTACA
Q: Does B3 bind [7]?
A: binds

Q: Does B3 bind [8]?
A: binds

B4: OdAu1a recognition DNA, 24 bp, unlabelled (dsDNA)
DNA 1: TGTAGCGTCTGACGTGGTTCCCAC
DNA 2: GTGGGAACCACGTCAGACGCTACA
Q: What does the source list for B4?
A: binding result [9]: binds; binding result [10]: binds
